In US20190048073A1, “ANTI-GD3 ANTIBODIES AND ANTIBODY-DRUG CONJUGATES” (Pfizer Inc., priority 2017, published 2019):
Like-named read-outs stand apart in the source and are kept apart here.

B1: KM871: chR24 (hAb.51) chimeric version (hIgG1, kappa) of KM641 (SEQ ID NOs: 28 and 29) (antibody, V domains shown)
VH: EVTLVESGGDFVKPGGSLKVSCAASGFAFSHYAMSWVRQTPAKRLEWVAYISSGGSGTYYSDSVKGRFTISRDNAKNTLYLQMRSLRSEDSAMYFCTRVKLGTYYFDSWGQGTTLTVSS
VL: DIQMTQTASSLPASLGDRVTISCSASQDISNYLNWYQQKPDGTVKLLIFYSSNLHSGVPSRFSGGGSGTDYSLTISNLEPEDIATYFCHQYSKLPWTFGGGTKLEIK
B2: hAb 3: fully humanized mR24 based on framework shuffle (SEQ ID NOs: 32 and 33, VL framework V1-12 and VH framework V3-7) (antibody, V domains shown)
VH: EVQLVESGGGLVQPGGSLRLSCAASGFTFSNFGMHWVRQAPGKGLEWVAYISSGGSSINYADTVKGRFTISRDNAKNSLYLQMNSLRAEDTAVYYCARGGTGTRSLYYFDYWGQGTLVTVSS
VL: DIQMTQSPSSVSASVGDRVTITCRASQDIGNFLNWYQQKPGKAPKLLIYYTSRLQSGVPSRFSGSGSGTDFTLTISSLQPEDFATYYCQQGKTLPYTFGGGTKVEIK
B3: hAb 21: fully humanized mR24 based on framework shuffle (SEQ ID NOs: 30 and 31, VL framework V3-11 and VH framework V3-7) (antibody, V domains shown)
VH: B2 VH
VL: EIVLTQSPATLSLSPGERATLSCRASQDIGNFLNWYQQKPGQAPRLLIYYTSRLQSGIPARFSGSGSGTDFTLTISSLEPEDFAVYYCQQGKTLPYTFGGGTKVEIK

Assay: Estimation of binding affinity by Octet
Excerpt: Murine R24 (mR24) is a murine antibody that binds GD3 (SEQ ID NOs: 17 and 19). To minimize the risk of immunogenicity, an attempt was made to humanize mR24 for further therapeutic development. An earlier attempt to humanize mR24 is disclosed in WO2008/101234. The CDRs of murine antibody mR24 were identified using Kabat. Humanization of mR24 was first attempted using the semi-empirical framework shuffle approach. In this approach, human germline frameworks with a high degree of homology with mR24 sequences, VL frameworks V1-12 and V3-11 and VH framework V3-7, were selected. The selected frameworks were then used as the acceptor framework for mR24 without any backmutations in the framework region. The CDRs of mR24 were then inserted into the acceptor frameworks, and antibody proteins were generated and assessed for their expression yield, purification properties, and GD3 target binding activity. After screening, two advanced humanization variants with high GD3 binding activity, overall expression yields, and stability, hAb 21 (SEQ ID NOs: 30 and 31, VL framework V3-11 and VH framework V3-7) and hAb3 (SEQ ID NOs: 32 and 33, VL framework V1-12 and VH framework V3-7), were further evaluated for their aggregation level after purification.

[1] = antibody concentrated (Ab 3 21.2 mg/ml, hAb 21 27.8 mg/ml), in Tier-1 buffer

Molecule | Kd [nM] | Kdis [s⁻¹] | Kon [M⁻¹ s⁻¹] | Kd [1] [nM] | Kdis [1] [s⁻¹] | Kon [1] [M⁻¹ s⁻¹] | Kd (antibody dialyzed in PBS) [nM] | Kdis (antibody dialyzed in PBS) [s⁻¹] | Kon (antibody dialyzed in PBS) [M⁻¹ s⁻¹]
B1 | 9.02 | 0.00596 | 1.33e+06 | – | – | – | – | – | –
B2 | – | – | – | 59.7 | 0.00278 | 75400 | 55.8 | 0.00144 | 37700
B3 | – | – | – | 31.1 | 0.00111 | 44600 | 28.9 | 0.00136 | 59700
